Reference: patent US6835539B1, “Nucleic sequences coding for an AT2 interacting proteins interacting with the AT2 receptor and their applications” (priority 1998, dated 2004)

T1: AT2 receptor (Homo sapiens, UniProt P50052)
T1 sequence (P50052 1-363): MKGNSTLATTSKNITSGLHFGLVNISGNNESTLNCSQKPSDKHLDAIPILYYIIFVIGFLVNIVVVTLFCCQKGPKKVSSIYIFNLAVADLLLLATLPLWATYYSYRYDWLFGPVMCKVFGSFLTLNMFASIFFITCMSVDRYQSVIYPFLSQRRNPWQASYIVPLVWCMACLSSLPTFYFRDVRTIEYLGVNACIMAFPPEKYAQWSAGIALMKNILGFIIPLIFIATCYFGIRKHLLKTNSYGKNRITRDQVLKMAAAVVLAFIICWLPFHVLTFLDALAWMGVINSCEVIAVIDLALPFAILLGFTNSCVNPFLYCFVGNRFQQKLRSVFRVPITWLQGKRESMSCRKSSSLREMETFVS

T2: C-terminal end of the mouse AT2 receptor (Mus musculus, UniProt P35374)
T2 construct: expressed in transfected cells; host or cells: yeast HF7c (pGBT9 bait) or L40 (pLex9 bait)
T2 sequence (P35374 312-363): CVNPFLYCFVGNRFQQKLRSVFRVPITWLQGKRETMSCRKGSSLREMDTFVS

T3: C-terminal end of the human AT2 receptor (Asn314-Ser363) (Homo sapiens, UniProt P50052)
T3 construct: C-terminal end of the human AT2 receptor (Asn314-Ser363); made in house; host or cells: E. coli DH5α (pMAL-c2-AT2)
T3 sequence (P50052 314-363): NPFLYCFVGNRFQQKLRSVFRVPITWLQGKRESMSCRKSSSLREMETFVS

T4: C-terminal end of human AT1 receptor (Leu 297-Glu 359) (Homo sapiens, UniProt P30556)
T4 construct: C-terminal end of human AT1 receptor (Leu 297-Glu 359); made in house; host or cells: bacteria, same protocol as MBP-AT2 (E. coli DH5α)
T4 sequence (P30556 297-359): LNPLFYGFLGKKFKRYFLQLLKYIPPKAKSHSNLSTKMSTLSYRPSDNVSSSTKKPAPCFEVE

B1: ATIPmouse-short: Polypeptide (SEQ ID NO:6) encoded by the 354 bp ATIP clone (SEQ ID NO:5); AT2 interacting protein fragment, used as a GST fusion (protein)
chain: HQTDRTELENRLKDLYTAECEKLQSIYIEEAEKYKTQLQEQFDNLNAAHETTKLEIEASHSEKVELLKKTYETSLSEIKKSHEMEKKSLEDLLNEKQESLEKQINDLKSENDALNERL
modifications: used as GST fusion; Insert identified by yeast two hybrid screening of a M. musculus fetal cDNA library

How the values were obtained:
AT2 receptor [1] = molecular target: T1, AT2 receptor; test: Inhibition of insulin-induced tyrosine phosphorylation in CHO-hAT2-ATIP cells; format: cell-based; parameters: a plasmid containing the region encoding the human AT2 receptor; expressed in transfected cells; host or cells: CHO-hAT2 cells stably transfected with ATIPmouse-long; conditions: 100 nM, insulin 0.05, 0.01, 0.005, 0.001 μg/ml, reproduced 3 times
Description: (§1) For that, a stable clone of CHO-hAT2 cells expressing the ATIPmouse-long protein (CHO-hAT2-ATIP), obtained according to the methodology described in Example 4, was used; the functional test for the activity of the AT2 receptor developed on the CHO-hAT2 clone which consists in inhibiting the phosphorylation of the IRβ subunit of the insulin receptor induced by its ligand, was reproduced.
The CHO-hAT2 cells are inoculated at a density of 3×10^6 cells per dish having a diameter of […]. They are made quiescent by 16 hours of deprivation before being treated. The treatment consists in bringing into contact for 5 minutes with 15 ml of F12 medium containing insulin supplemented or otherwise with CGP42112 (selective agonist of the AT2 receptor). […] After bringing into contact and washings, the lectin beads coupled to Sepharose (Pharmacia) are recovered in sample buffer containing SDS and the eluted proteins are analysed in SDS-PAGE followed by immunoblotting with anti-phosphotyrosine antibodies (Upstate Biotechnology, Inc.) or anti-IRβ antibodies (described in Issad, T. et al., cited above). […]

AT2 receptor [2] = molecular target: T1, AT2 receptor; test: Inhibition of insulin-induced tyrosine phosphorylation in CHO-hAT2 cells; format: cell-based; parameters: a plasmid containing the region encoding the human AT2 receptor; expressed in transfected cells; host or cells: CHO cells deficient in dihydrofolate reductase (clone CHO-hAT2)
Description: as §1
The CHO-hAT2 cells are inoculated at a density of 3×10^6 cells per dish having a diameter of […]. They are made quiescent by 16 hours of deprivation before being treated. […] After treatment, the cells are solubilized in lysis buffer containing: 50 mM Hepes, pH 7.6, 1% Triton X-100, 20 mM EDTA, 30 mM sodium pyrophosphate, 30 mM sodium fluoride, 2 mM benzamidine, 1 mM sodium orthovanadate, 1 mM phenylmethylsulphonyl fluoride and 1 μg/ml of aprotinin, pepstatin, antipain and leupeptin. The lysates are then subjected to purification on a wheatgerm lectin column, according to the protocol described in Issad, T. et al., (Eur. J. Biochem. 1995, 234, 108-115). After bringing into contact and washings, the lectin beads coupled to Sepharose (Pharmacia) are recovered in sample buffer containing SDS and the eluted proteins are analysed in SDS-PAGE followed by immunoblotting with anti-phosphotyrosine antibodies (Upstate Biotechnology, Inc.) or anti-IRβ antibodies (described in Issad, T. et al., cited above).

[3] = molecular target: T2, C-terminal end of the mouse AT2 receptor; test: Two-hybrid interaction of the ATIP clone with the AT2 C-terminal bait; format: binding; conditions: baits in pGBT9 and pLEX9; mouse foetal cDNA library clone
Description: In the two-hybrid system, the DNA-binding domain is fused with a protein X and the activation domain is fused with a protein Y. If, and only if, X and Y interact, a complex is formed which reconstitutes a functional transcription factor.
Protein X: C-terminal end of the sequence encoding the mouse AT2 receptor (52 amino acids of CVNPF at the stop codon, see FIG. 1), fused with the sequence encoding the Gal4 DNA-binding domain (FIG. 2).
Insert: end of the mouse AT2 receptor (159 bp+16 bp of sites generated by PCR) inserted at the level of the EcoRI and BamHI sites of the vectors pLEX9 (Clontech) or pGBT9 (modified pGAD424 or pBTM116; A. B. Vojtek et al., Cell, 1993, 74, 205-214).
mouse foetal cDNA library (A. B. Vojtek et al., Cell, 1993, 74, 205-214) , containing inserts of 350 to 700 bp (protein Y) in the vector VP16 (FIG. 5).
HF7c (Clontech) for the bait constructed in pGBT9;
L40 for the bait constructed in pLex9.

[4] = tested on: C-terminal end of the human bradykinin receptor; test: Two-hybrid selectivity test with a control bait; format: binding
Description: (§2) Protein X: C-terminal end of the human β2-adrenergic receptors, rat AT1 or human bradykinin.

[5] = molecular target: T5, C-terminal end of the human β2 adrenergic receptor (Homo sapiens, UniProt P07550); test: Two-hybrid selectivity test with a control bait; format: binding
T5 construct: C-terminal end of the human β2-adrenergic receptors; expressed in transfected cells
Description: as §2

[6] = tested on: C-terminal end of the rat AT1 receptor; test: Two-hybrid selectivity test with a control bait; format: binding
Description: as §2

[7] = molecular target: T3, C-terminal end of the human AT2 receptor (Asn314-Ser363); test: In vitro GST pull-down of MBP-AT2 on GA-GST-ATIPmouse-short beads; format: binding; conditions: compared with GA-GSTalone beads; SDS-PAGE and anti-MBP immunoblot; FIG. 10
Experimental: For that, the fusion protein GST-ATIP as described above was produced; it is combined through its GST part with glutathione coupled to agarose beads (GA). In parallel, bacteria (DH5α) are transfected with a plasmid (pMAL-c2-AT2, derived from pMAL-c2 from New England Biolabs) encoding a fusion protein between the C-terminal end of the human AT2 receptor (Asn314-Ser363) and MBP (Maltose Binding Protein). These bacteria were cultured and the fusion protein was induced in 0.3 mM IPTG according to the protocol “pMAL Protein Fusion and Purification System” from New England Biolabs. After centrifugation of the culture at 4000 g and solubilization of the pellet obtained in “column buffer” (20 mM Tris-HCl, 200 mM NaCl, 1 mM EDTA), another centrifugation at 9000 g made it possible to recover a supernatant containing a high concentration of MBP-AT2. This supernatant was brought into contact, for 3 hours at […], with glutathione agarose beads coupled to GST protein alone after addition of NaCl so as to have 300 mM final NaCl. This preincubation step makes it possible to remove the nonspecific interactions which may exist between ATIP and GA-GST. The supernatant recovered was brought into contact with the GA-GST-ATIPmouse-short or GA-GSTalone beads overnight at 4° C. After contact, the beads were rinsed three times in 20 mM Tris-HCl buffer, 300 mM NaCl, 1 mM EDTA and once in “column buffer”.

[8] = molecular target: T4, C-terminal end of human AT1 receptor (Leu 297-Glu 359); test: In vitro GST pull-down of MBP-AT1 on GA-GST-ATIPmouse-short beads; format: binding; conditions: SDS-PAGE and anti-MBP immunoblot; FIG. 10

Molecule | inhibition of the phosphorylation of the insulin receptor (AT2 receptor [1]) | inhibition of the phosphorylation of IRβ induced by insulin (AT2 receptor [2]; CHO-hAT2 cells, 100 nM, all insulin doses between 0.1 and 0.001 μg/ml, 5 minutes) | inhibition of the phosphorylation of IRβ (AT2 receptor [2]; CHO-hAT2 cells, induced by 0.01 μg/ml insulin, n=7) | inhibition of insulin-induced tyrosine phosphorylation of SIRP (120 kDa) (AT2 receptor [2]; clone CHO-hAT2) | interaction with the C-terminal end of AT2 in the two-hybrid system [3] | two-hybrid interaction with the C-terminal end of the human bradykinin receptor [4] | two-hybrid interaction with the C-terminal end of the human β2 adrenergic receptor [5] | two-hybrid interaction with the C-terminal end of the rat AT1 receptor [6] | retention of the MBP-AT2 protein on GA-GST-ATIPmouse-short beads [7] | retention of the MBP-AT1 protein on GA-GST-ATIPmouse-short beads [8]
CGP42112 | not observed | inhibit | 64±4% | inhibited | – | – | – | – | – | –
B1 | – | – | – | – | interacts specifically | negative results | negative results | negative results | specific retention | not retained in a specific manner
